Molecular target: PSCA (prostate stem cell antigen), human, PSCA v.1 (human) (UniProt O43653)
Experiment: FACS titration on SW780 cells, anti-hIgG-PE, Graphpad Prism sigmoidal dose-response fit

B1: Ha1-5.99 (antibody, IgG2, V domains shown)
VH: QVHLQQWGAGLLKPSETLSLTCAVYGGSFSGYYWSWIRQPPGKGLEWIGEINHSGSTSYKPSLKSRVTVSVDTSKNQFSLKLSYVTAADTAVYYCARDRGDYGDFLFDYWGQGTLVTVSS
VL: SPGERATLSCRASQSIGSTYLAWYQQKPGQAPRLLIYGASSRATGIPERFSGSGSGTDFTLTISGLEPEDFAVFYCQQCGSSPPTFGQGTKVEIKR
  Kd: 0.28 nM

B2: Ha1-4.37 (antibody, V domains shown)
VH: PGALQESGPGLVRPSQTLSLTCTVSGGSISSGGTYYWIWIRQHPGKGLEWIGYIYYSGSTYYNPSLKSRVTISVDTSKNQFSLKLSSVTAADTAVYYCARDGITMVRGISGGMDVWGQGTTVTVSS
VL: ASVGDRVTITCRASQSISSHLNWYQQKPGKAPKLLIYAASSLQSGVPSRFSGSGSGTDFTLSISSLQPEDFATYFCQQSYSIPRTFGQGTKVEITR
  Kd: 0.23 nM

From US20050221400A1
